For this assay, the target named is aggregated glucose-6-phosphate dehydrogenase (G6PDH) from Leuconostoc mesenteroides (Leuconostoc mesenteroides) (UniProt P11411). Nature of the assay: retention with aggregates on a 0.1-μm filter, SDS-PAGE.
Sequence of UniProt P11411 (P11411 whole entry): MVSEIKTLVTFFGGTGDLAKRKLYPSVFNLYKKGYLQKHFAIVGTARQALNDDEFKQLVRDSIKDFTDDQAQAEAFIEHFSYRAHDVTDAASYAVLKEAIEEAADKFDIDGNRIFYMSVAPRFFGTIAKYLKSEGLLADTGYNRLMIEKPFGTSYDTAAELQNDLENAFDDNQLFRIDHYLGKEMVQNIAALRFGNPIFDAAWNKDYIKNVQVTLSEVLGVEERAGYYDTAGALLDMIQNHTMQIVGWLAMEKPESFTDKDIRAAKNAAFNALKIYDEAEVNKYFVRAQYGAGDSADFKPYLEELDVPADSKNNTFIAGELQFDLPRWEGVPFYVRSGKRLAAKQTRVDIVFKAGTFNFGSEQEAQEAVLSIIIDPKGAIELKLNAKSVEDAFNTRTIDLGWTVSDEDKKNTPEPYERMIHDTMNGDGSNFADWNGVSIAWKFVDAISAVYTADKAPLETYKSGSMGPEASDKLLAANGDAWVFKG

As for “ClpB 2P (GG motif converted into PP) (from UniProt P63284 1-857) (natural protein)”, the decrease of the amount bound compared to wt ClpB came to 50%.
“ClpB 4G (four Gly inserted in the N-terminal linker) (from UniProt P63284 1-857) (natural protein)” returned a decrease of the amount bound compared to wt ClpB of 50%.

The record behind these values is publication PMC3486956.
